Experimental data published in patent publication CN115125236A (YEASEN BIOLOGICAL TECH SHANGHAI CO LTD, dated 2022).

B1: Benzonase单克隆抗体scFv3 (scFv)
scFv: QLVESGGRLVTPGTPLTLTCTASGFALSGYYMTWVRQAPGKGLEWIGITHPSGSTYYASWVKGRFTISKASTTVDLRITSPTTEDTATYFCARVWTHYSSGGGDLWGPGTLVTISSGGGGSGGGGSGGGGSDLTQTPSSVSAAVGGTVTINCQSSESVYKNNDLSWYQQKPGQPPKLLISAASTLASGVPSRFKGSGSGTQFTLTISGVQCDDAATYYCQQGYSGDNVVNTFGGGTEVVVK
B2: Benzonase单克隆抗体scFv5 (scFv)
scFv: QLMESGGGLVTPGGTLTLTCTASGFSLSNYWMSWVRQAPGKGLEWIGIISNYGSTYYASWAKGRFTISKTSTTVDLRITSPTIEDTATYFCAREFAGVFNLWGPGTLVTVSSGGGGSGGGGSGGGGSDMTQTPASVSEPVGGTVTINCQASQSVYNNKNLAWYQQKPGQPPKVLIYKASTLASGVSSRFKGSGSGTEFTLTISDLECADAATYYCQQGHDTNVQNLFGGGTEVVVKAAAGA
B3: Benzonase单克隆抗体scFv1 (scFv)
scFv: QLVESGGGLVTPGTPLTLTCTASGFSLSSYWMSWVRQAPGKGLEWIGVISSSGSTDYASWAKGRFTISKTSTTVDLKITSLTTEDTAIYFCARYSSDWNAYDLWGQGTLVTISSGGGGSGGGGSGGGGSVLTQTPSPVSAAVGGTVTISCQASQSVYGNNYLSWFQQKPGQPPKLLIYQASTLASGVPSRFSGSGSGTQFSLTISGVQCDDAATYYCAGWSGSGTDAVAFGGGTELEILGRSGP
B4: Benzonase单克隆抗体scFv4 (scFv)
scFv: QLMESGGGLVQPGASLTLTCTASGFSFSSNYWICWVRQAPGKGLEWIGCIYTGTSGTTYYASWAKGRFTISETSSTTVTLQMTSLTAADTATYFCSKNTYGYALAARLDLWGQGTLVTISSGGGGSGGGGSGGGGSDMTQTPASVEVAVGGTVTIKCQASQSIGSDLAWYQQKLGQPPKLLIYYASTLESGAPARFSGSGSGTEYTLTITDVQCDDAATYYCAGDYSSGNDNGFGGGTEVVVKA
B5: Benzonase单克隆抗体scFv6 (scFv)
scFv: QLVESGGDLVKPGASLTLTCTASGFTLSSYWMCWVRQAPGKGLEWIGCIDTGSSDSTYYANWAKGRFTISKASSTTVTLQMTSVTPADTATYFCARHLRYSTNNNDWDLWGPGTLVTVSSGGGGSGGGGSGGGGSDLTQTPASVEAAVGDTVTIKCQASQSIYNYLAWYQQKPGQPPKVLIYAASNLASGVPSRFSGSGSGTQFTLTISGVQCDDAATYYCAGAYSTYGDNGFGGGTEVVVKA

target: T1, 牛血清白蛋白 (牛 (bovine, by its name), UniProt P02769 25-607); experiment: ELISA, BSA coated and blocked as control, HRP anti-flag-tag detection
T1 construct: also called BSA
T1 sequence (P02769 25-607 limits assumed): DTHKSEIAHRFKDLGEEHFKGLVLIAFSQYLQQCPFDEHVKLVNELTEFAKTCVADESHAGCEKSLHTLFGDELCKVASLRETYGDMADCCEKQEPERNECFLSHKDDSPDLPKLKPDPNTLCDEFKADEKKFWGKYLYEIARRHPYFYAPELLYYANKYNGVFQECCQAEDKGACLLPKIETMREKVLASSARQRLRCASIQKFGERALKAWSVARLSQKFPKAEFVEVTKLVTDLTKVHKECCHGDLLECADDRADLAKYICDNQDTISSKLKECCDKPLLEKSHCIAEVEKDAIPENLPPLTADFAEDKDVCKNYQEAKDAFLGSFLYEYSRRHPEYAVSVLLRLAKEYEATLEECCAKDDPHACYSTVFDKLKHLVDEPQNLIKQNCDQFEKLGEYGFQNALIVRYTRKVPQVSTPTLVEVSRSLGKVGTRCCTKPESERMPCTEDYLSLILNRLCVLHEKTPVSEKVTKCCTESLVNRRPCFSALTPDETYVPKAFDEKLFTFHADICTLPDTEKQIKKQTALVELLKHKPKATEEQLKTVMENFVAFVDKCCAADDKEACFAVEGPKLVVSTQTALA

Row | Binder | binding result
1 | B1 | no binding (tested: 1μg/ml后二倍梯度稀释)
2 | B2 | no binding (tested: 1μg/ml后二倍梯度稀释)
3 | B3 | no binding (tested: 1μg/ml后二倍梯度稀释)
4 | B4 | no binding (tested: 1μg/ml后二倍梯度稀释)
5 | B5 | no binding (tested: 1μg/ml后二倍梯度稀释)

target: T2, Benzonase (粘质沙雷氏菌 (Serratia marcescens), UniProt P13717 22-266); experiment: sandwich ELISA, biotin-scFv4 as detection on Benzonase captured by scFv3, HRP-streptavidin
T2 construct: Coated on the plate in the ELISA and used as the sample in the sandwich ELISA; also called 全能核酸酶; Benzonase蛋白
T2 sequence (looked up): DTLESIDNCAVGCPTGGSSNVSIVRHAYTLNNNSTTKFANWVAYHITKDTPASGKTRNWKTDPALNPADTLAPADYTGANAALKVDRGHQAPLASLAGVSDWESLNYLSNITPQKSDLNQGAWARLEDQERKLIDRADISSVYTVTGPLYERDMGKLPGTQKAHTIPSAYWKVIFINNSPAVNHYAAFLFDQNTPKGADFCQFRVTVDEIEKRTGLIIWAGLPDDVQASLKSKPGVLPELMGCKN

Row | Binder | binding result
6 | B4 | binds

target: T2, Benzonase; experiment: ELISA, Benzonase coated, scFv from 1 μg/ml in twofold dilutions, HRP anti-flag-tag detection

Row | Binder | binding result
7 | B1 | binds
8 | B2 | binds
9 | B3 | binds
10 | B5 | binds
